# Laboratory results published in publication PMC10208982, “Structural basis of catalytic activation in human splicing” (Nature, 2023).
# T1: PRP2(137–1022) (human, UniProt O60231 137-1022)
# T1 construct: comprises the modelled NTD (pin, clip, hook) and the helicase core; The tag can be cleaved off with HRV-3C protease; also called recombinant PRP2; source: Sf9 or Hi5 insect cells, purified (Strep-Tactin, then SEC or Q Sepharose); also co-expressed with PPIL4 in Sf9, in lysate; not shown: Twin-StrepII, N-terminal, kept
# T1 sequence (looked up): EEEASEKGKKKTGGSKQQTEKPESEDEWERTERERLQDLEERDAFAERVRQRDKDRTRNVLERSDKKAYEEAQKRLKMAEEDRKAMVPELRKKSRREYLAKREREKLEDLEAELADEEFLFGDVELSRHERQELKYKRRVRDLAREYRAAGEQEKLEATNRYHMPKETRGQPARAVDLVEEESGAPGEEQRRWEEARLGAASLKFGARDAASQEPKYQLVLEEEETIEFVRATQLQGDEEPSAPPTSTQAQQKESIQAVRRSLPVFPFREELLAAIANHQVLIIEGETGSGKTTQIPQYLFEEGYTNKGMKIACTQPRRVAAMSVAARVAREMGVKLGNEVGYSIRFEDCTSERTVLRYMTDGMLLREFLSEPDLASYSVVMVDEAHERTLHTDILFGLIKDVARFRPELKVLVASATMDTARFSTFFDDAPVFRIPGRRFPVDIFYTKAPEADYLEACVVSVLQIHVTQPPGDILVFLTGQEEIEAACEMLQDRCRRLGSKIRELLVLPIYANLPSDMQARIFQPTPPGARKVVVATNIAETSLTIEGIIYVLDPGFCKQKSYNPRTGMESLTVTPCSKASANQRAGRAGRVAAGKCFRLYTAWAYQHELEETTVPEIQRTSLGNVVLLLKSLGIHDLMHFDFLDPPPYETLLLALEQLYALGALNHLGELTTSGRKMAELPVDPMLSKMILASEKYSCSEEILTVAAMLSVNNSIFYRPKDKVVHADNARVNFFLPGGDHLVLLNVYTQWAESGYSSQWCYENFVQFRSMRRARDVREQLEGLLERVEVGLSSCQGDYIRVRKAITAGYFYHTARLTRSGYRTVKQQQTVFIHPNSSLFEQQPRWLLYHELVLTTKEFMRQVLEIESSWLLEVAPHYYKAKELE
# B1: GPKOW (natural protein, human, UniProt Q92917 1-476, looked up)
# chain: MADSKEGVLPLTAASTAPISFGFTRTSARRRLADSGDGAGPSPEEKDFLKTVEGRELQSVKPQEAPKELVIPLIQNGHRRQPPARPPGPSTDTGALADGVVSQAVKELIAESKKSLEERENAGVDPTLAIPMIQKGCTPSGEGADSEPRAETVPEEANYEAVPVEAYGLAMLRGMGWKPGEGIGRTFNQVVKPRVNSLRPKGLGLGANLTEAQALTPTGPSRMPRPDEEQEKDKEDQPQGLVPGGAVVVLSGPHRGLYGKVEGLDPDNVRAMVRLAVGSRVVTVSEYYLRPVSQQEFDKNTLDLRQQNGTASSRKTLWNQELYIQQDNSERKRKHLPDRQDGPAAKSEKAAPRSQHWLHRDLRVRFVDNMYKGGQYYNTKMIIEDVLSPDTCVCRTDEGRVLEGLREDMLETLVPKAEGDRVMVVLGPQTGRVGHLLSRDRARSRALVQLPRENQVVELHYDAICQYMGPSDTDDD
# notes: human GPKOW, codon-optimized synthetic gene (GeneArt); also called PRP2 cofactor GPKOW; source: Sf9 or Hi5 insect cells, purified (Strep-Tactin, SEC); not shown: Twin-StrepII, N-terminal, kept
# Molecular target: T1, PRP2(137–1022)
# Test: SEC; around 30 μg PRP2(137–1022) mixed with a 5-fold excess of cofactor in 100 μl, 1 h on ice; Superdex 200 Increase 10/300 GL; 20 mM HEPES-KOH pH 7.5, 100 mM KCl, 1.5 mM MgCl2, 5% glycerol; fractions analysed by SDS-PAGE
# Settings: both partners purified
binder,measurement,value
B1,binding result,binds
